Reference: the nanobody polyreactivity screen of Harvey et al. (2022)

test: yeast display, Sf9 membrane polyspecificity reagent, FACS + sequencing; frameworks hold sequencing errors
Method in brief: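 After 36–48 hours of galactose induction, yeast (Saccharomyces cerevisiae BJ5465) displaying a synthetic nanobody library were stained at 4 °C for 1 hour with 10% biotinylated, detergent-solubilized Sf9 membrane reagent. Streptavidin microbeads enriched the stained cells before FACS sorting into low and high (top ~1%) gates on anti-HA and streptavidin fluorescence. Each clone's polyreactivity label reflects its gate of origin.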

Sequence | polyreactivity (PSR sort gate)
QVQLVESGGGLVQAGGSLRLSCAASGSTFIYYAMGWYRQAPGKEREFVAAISYRGGSTYYADSVKGRFTISRDNAKYTVYLQMNSLKPEDTAVYYCAASYRSWWETYLRGDYWGQGTQVTVSS | high polyreactivity
QVQLVESGGGLVQAGGSLRLSCAASGSTFIYYAMGWYRQAPGKERELVAGISIRGGSTYADSVKGRFTISRDNAKNTVYLQMNSVKPEDTAVYYCNAYKRIKANGYAIRYYYWGQGTQVTVSS | high polyreactivity
QVQLVESGGGLVQAGGSLRLSCAASGSTFKAYAMGWYRQAPGKEREFVAAITRSGGRTYYADSVKGRFTISRDNAKNTVYLQMNSLKPEDTAVYYCAAYTWYAWVSDPTNEYWGQGTQVTVSS | low polyreactivity
QVQLVESGGGLVQAGGSLRLSCAASGSTFKDNAMGRYIQAPGKERELVARITYRGGRTYADSVKGRFTISRDNAKNTVYFQMNSLKPEDTAVYYCAARPSLYGHNSRYDYWGQGTQVTVSS | low polyreactivity
QVQLVESGGGLVQAGGSLRLSCAASGSTFKDNAMGWYRLAPGKERELVARITYRGGRTYADSVKGRFTISRDNAKNTVFLQMNSLKPEDTAVYYCAARPSLYGHNSRYDYWGQGTQVTVSS | low polyreactivity
QVQLVESGGGLVQAGGSLRLSCAASGSTFKFYAMGWYRQAPGKARELVASITSSSGPTYYADSVKGRFTISRDNAKNTVYLQMNSLKPEDPAVYYCNKDWRRYWLRGDYWGQGTQVTVSS | low polyreactivity
QVQLVESGGGLVQAGGSLRLSCAASGSTFKIYAMGWYRQAPGKERELVASIRGRGGSTYYADSVKGRFTISRDNAKNTVYLQLNSLKPEDTAVYYCNATYGHRYAPGISYDYWGQGSQVTVSS | high polyreactivity
QVQLVESGGGLVQAGGSLRLSCAASGSTFKIYARGWYRQAPGKERELVARITGRGGSTYYADSVKGRFTISRDNAKNTVYLQMNSLKPEDTAVYYCAARVYTYYYDLHKRYYWGQGTQVTVSS | high polyreactivity
QVQLVESGGGLVQAGGSLRLSCAASGSTFKKYVMGWYRQAPGKERELVAAISGRGGSTYYADSVKGRFTISRDNAKNTVYLQMNSLKPEDTAVYYCNARKQTARFDSWGQGTQVTVSS | high polyreactivity
QVQLVESGGGLVQAGGSLRLSCAASGSTFKNYAMGWYRQAPGKERELVAAINVSGARTYYADSVKGRFTISRDNAKNTVYLQMNSLKPEDTAVYYCAAYYSGVGYDYWGQGTQVTVSS | high polyreactivity
QVQLVESGGGLVQAGGSLRLSCAASGSTFKRNAMGWSRQAPGKEWELVAAITFSGATTYYADSVKGRFTISRDNAKNTVYLQMNSLKPEDTAVYYCATKAYTTGRYYWGQGTQVTVSS | high polyreactivity
QVQLVESGGGLVQAGGSLRLSCAASGSTFKRNAMGWYRPAPGKERELVAAITFSGATTYYADSVKGRFTISRDNAKNTVYLQMNSLKPEDTAVYYCATKAYTTGRYYWGQGTQVTVSS | high polyreactivity
QVQLVESGGGLVQAGGSLRLSCAASGSTFKRNAMGWYRPATGKERELVATITRRGGSTYADSVKGRFTISRDNAKNTVYLQMNSLKPEDTAVYYCNADSRPLSTYYYWGQGTQVTVSS | low polyreactivity
QVQLVESGGGLVQAGGSLRLSCAASGSTFKRNAMGWYRQAPGKERELVAAITSGGSTYYADSVKGRFTISRDNAKNTVYLQMNSLKPEDTAVYYCNKVRGAFYSHLFDYWGQGTQVTVSS | high polyreactivity
QVQLVESGGGLVQAGGSLRLSCAASGSTFKRNAMGWYRQATGKERELVAAISTNGGRTYYADSVKGRFTISRDNAKNTVYLQMNSLKPEDTAVYYCAVDLFDGVTKLNYDYWGQGTQVTVSS | low polyreactivity
QVQLVESGGGLVQAGGSLRLSCAASGSTFKRNTMGWYRQAPGKERELVAAISRSGGYTYYADSVKGRFTISRDNAKNTVYLQMNSLNPEDTAVYYCNANVSSYVGSRSYGLSPYDYWGQGTQVTVSS | high polyreactivity
QVQLVESGGGLVQAGGSLRLSCAASGSTFKSYAMGWYRQAPGKERELVAAISRSGGRTYYADSVKGRFTISRDNAKNTVYLQMNSLKPEDTAVYYCATGVKREGDYWGQGTQVTVSS | high polyreactivity
